Measured values published in publication PMC3350560.

B1: probe C (oligo C) (dsDNA)
DNA 1: GGCAAACAGCAGGAATTCCTAAAAAATTCGAAAAGGTTTCT
DNA 2: AGAAACCTTTTCGAATTTTTTAGGAATTCCTGCTGTTTGCC
B2: probe A (oligo A) (dsDNA)
DNA 1: GATTTGCGTTTTAGAGGCTATAGGCTCTTGAAACTCTCCA
DNA 2: TGGAGAGTTTCAAGAGCCTATAGCCTCTAAAACGCAAATC
B3: probe D (oligo D) (dsDNA)
DNA 1: CAATGATTTGCGTTTTAG
DNA 2: CTAAAACGCAAATCATTG

The binders below were run against rCKAP4 (recombinant CKAP4 extracellular domain) (UniProt Q07065 126-501) (assay: EMSA).
Sequence of rCKAP4 (recombinant CKAP4 extracellular domain) (Q07065 126-501): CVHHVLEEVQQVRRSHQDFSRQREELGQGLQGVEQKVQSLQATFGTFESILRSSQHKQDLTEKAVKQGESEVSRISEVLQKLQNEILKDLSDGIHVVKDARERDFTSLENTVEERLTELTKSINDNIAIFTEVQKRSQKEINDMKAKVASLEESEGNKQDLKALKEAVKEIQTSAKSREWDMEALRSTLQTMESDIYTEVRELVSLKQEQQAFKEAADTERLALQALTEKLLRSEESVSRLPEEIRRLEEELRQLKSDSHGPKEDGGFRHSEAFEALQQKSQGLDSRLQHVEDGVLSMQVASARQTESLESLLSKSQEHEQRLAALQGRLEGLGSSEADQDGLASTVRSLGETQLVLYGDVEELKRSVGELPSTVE
B1: no binding. B2: binds. B3: no binding.
